Residue numbers refer to the chain shown, from its start. In names and notes the source's numbering stands.
T1: PUF4 RNA-binding domain (Saccharomyces cerevisiae, UniProt P25339 537-888)
T1 sequence: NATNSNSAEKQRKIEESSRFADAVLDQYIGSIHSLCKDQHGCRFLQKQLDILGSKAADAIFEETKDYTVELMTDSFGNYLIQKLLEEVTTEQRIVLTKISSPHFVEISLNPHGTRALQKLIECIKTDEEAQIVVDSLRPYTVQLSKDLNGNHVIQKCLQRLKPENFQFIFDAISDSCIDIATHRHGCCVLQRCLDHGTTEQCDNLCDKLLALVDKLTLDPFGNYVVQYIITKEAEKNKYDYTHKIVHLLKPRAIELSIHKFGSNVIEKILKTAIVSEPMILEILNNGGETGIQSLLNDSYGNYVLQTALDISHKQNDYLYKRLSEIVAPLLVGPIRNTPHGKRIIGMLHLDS

B1: Id_ii_S2_P5E.2_K5.1_C5.2_[T-1G]_H5.1_A5.1_F5.1_T5.2_[A12C] (ssRNA)
RNA: UUUGAUUAAUAUGAUAUCGUUCUUUCUCGUGUAUUAUUAUCUUCUUUCUCGAUAUCAUAUUAAUCUUU
B2: Id_ii_S2_P5E.2_K5.1_C5.2_[T-1G]_H5.1_A5.1_F5.1_T5.2_[A12T] (ssRNA)
RNA: B1 RNA with C41U
B3: Id_ii_S2_P5E.2_K5.1_C5.2_[T-1C]_H5.1_A5.1_F5.1_T5.2_[T11A]_[A12G] (ssRNA)
RNA: B1 RNA with G29C, U40A, C41G
B4: Ic_S1_P5E.1_K5.1_C5.1_H5.1_A5.1_[T6A]_F5.1_[T8C]_T5.1 (ssRNA)
RNA: UCUCUUUGUAUAACUAUCUCUU
B5: Id_ii_S2_P5E.2_K5.1_C5.2_[T-1C]_H5.1_A5.1_F5.1_T5.2_[T11A]_[A12C] (ssRNA)
RNA: B1 RNA with G29C, U40A
B6: Id_ii_S2_P5E.2_K5.1_C5.2_[T-1C]_H5.1_A5.1_F5.1_T5.2_[T11A]_[A12T] (ssRNA)
RNA: B1 RNA with G29C, U40A, C41U
B7: Id_ii_S2_P5E.2_K5.1_C5.2_[T-1C]_H5.1_A5.1_F5.1_T5.2_[T11A] (ssRNA)
RNA: B1 RNA with G29C, U40A, C41A
B8: Id_ii_S2_P5E.2_K5.1_C5.2_[T-1C]_H5.1_A5.1_F5.1_T5.2_[A12G] (ssRNA)
RNA: B1 RNA with G29C, C41G
B9: Id_ii_S2_P5E.2_K5.1_C5.2_[T-1C]_H5.1_A5.1_F5.1_T5.2_[A12C] (ssRNA)
RNA: B1 RNA with G29C
B10: Id_ii_S2_P5E.2_K5.1_C5.2_[T-1C]_H5.1_A5.1_F5.1_T5.2_[A12T] (ssRNA)
RNA: B1 RNA with G29C, C41U
B11: Id_ii_S2_P5E.2_K5.1_C5.2_[T-1A]_H5.1_A5.1_F5.1_T5.2_[T11G]_[A12C] (ssRNA)
RNA: B1 RNA with G29A, U40G
B12: Id_ii_S2_P5E.2_K5.1_C5.2_[T-1A]_H5.1_A5.1_F5.1_T5.2_[T11G]_[A12T] (ssRNA)
RNA: B1 RNA with G29A, U40G, C41U
B13: Id_ii_S2_P5E.2_K5.1_C5.2_[T-1A]_H5.1_A5.1_F5.1_T5.2_[T11A]_[A12G] (ssRNA)
RNA: B1 RNA with G29A, U40A, C41G
B14: Id_ii_S2_P5E.2_K5.1_C5.2_[T-1A]_H5.1_A5.1_F5.1_T5.2_[T11A]_[A12C] (ssRNA)
RNA: B1 RNA with G29A, U40A
B15: Ib_S1_P5E.1_K5.1_C5.1_H5.1_A5.1_[T6C]_F5.1_[T8A]_T5.1 (ssRNA)
RNA: UCUCUUUGUAUCAAUAUCUCUU
B16: Id_ii_S2_P5E.2_K5.1_C5.2_[T-1A]_H5.1_A5.1_F5.1_T5.2_[T11A]_[A12T] (ssRNA)
RNA: B1 RNA with G29A, U40A, C41U
B17: Id_ii_S2_P5E.2_K5.1_C5.2_[T-1A]_H5.1_A5.1_F5.1_T5.2_[A12C] (ssRNA)
RNA: B1 RNA with G29A
B18: Id_ii_S2_P5E.2_K5.1_C5.2_[T-1A]_H5.1_A5.1_F5.1_T5.2_[A12T] (ssRNA)
RNA: B1 RNA with G29A, C41U
B19: Id_ii_S2_P5E.2_K5.1_C5.2_H5.1_A5.1_F5.1_T5.2_[T11G]_[A12C] (ssRNA)
RNA: B1 RNA with G29U, U40G
B20: Id_ii_S2_P5E.2_K5.1_C5.2_H5.1_A5.1_F5.1_T5.2_[T11A]_[A12C] (ssRNA)
RNA: B1 RNA with G29U, U40A
B21: Id_ii_S2_P5E.2_K5.1_C5.2_H5.1_A5.1_F5.1_T5.2_[T11A]_[A12T] (ssRNA)
RNA: B1 RNA with G29U, U40A, C41U
B22: Id_ii_S2_P5E.2_K5.1_C5.2_H5.1_A5.1_F5.1_T5.2_[T11A] (ssRNA)
RNA: B1 RNA with G29U, U40A, C41A
B23: Id_ii_S2_P5E.2_K5.1_C5.2_H5.1_A5.1_F5.1_T5.2_[A12T] (ssRNA)
RNA: B1 RNA with G29U, C41U
B24: Id_ii_S2_P5E.3_K5.2_C5.2_[C-2G]_[T-1C]_H5.2_A5.1_F5.1_T5.2_[T11C]_[A12G] (ssRNA)
RNA: B1 RNA with C28G, G29C, G31A, U40C, C41G
B25: Id_ii_S2_P5E.3_K5.2_C5.2_[C-2G]_[T-1C]_H5.2_A5.1_F5.1_T5.2_[T11C]_[A12C] (ssRNA)
RNA: B1 RNA with C28G, G29C, G31A, U40C
B26: Ib_S1_P5E.1_K5.1_C5.1_H5.1_A5.1_[T6A]_F5.1_[T8A]_T5.1 (ssRNA)
RNA: UCUCUUUGUAUAAAUAUCUCUU
B27: Id_ii_S2_P5E.3_K5.2_C5.2_[C-2G]_[T-1C]_H5.2_A5.1_F5.1_T5.2_[T11C]_[A12T] (ssRNA)
RNA: B1 RNA with C28G, G29C, G31A, U40C, C41U
B28: Id_ii_S2_P5E.3_K5.2_C5.2_[C-2G]_[T-1C]_H5.2_A5.1_F5.1_T5.2_[T11C] (ssRNA)
RNA: B1 RNA with C28G, G29C, G31A, U40C, C41A
B29: Id_ii_S2_P5E.3_K5.2_C5.2_[C-2G]_[T-1C]_H5.2_A5.1_F5.1_T5.2_[T11A]_[A12C] (ssRNA)
RNA: B1 RNA with C28G, G29C, G31A, U40A
B30: Id_ii_S2_P5E.3_K5.2_C5.2_[C-2G]_[T-1C]_H5.2_A5.1_F5.1_T5.2_[T11A]_[A12T] (ssRNA)
RNA: B1 RNA with C28G, G29C, G31A, U40A, C41U
B31: Id_ii_S2_P5E.3_K5.2_C5.2_[C-2G]_[T-1C]_H5.2_A5.1_F5.1_T5.2_[T11A] (ssRNA)
RNA: B1 RNA with C28G, G29C, G31A, U40A, C41A
B32: Id_ii_S2_P5E.3_K5.2_C5.2_[C-2G]_[T-1C]_H5.2_A5.1_F5.1_T5.2_[A12C] (ssRNA)
RNA: B1 RNA with C28G, G29C, G31A
B33: Id_ii_S2_P5E.3_K5.2_C5.2_[C-2G]_[T-1C]_H5.2_A5.1_F5.1_T5.2_[A12T] (ssRNA)
RNA: B1 RNA with C28G, G29C, G31A, C41U
B34: Id_ii_S2_P5E.3_K5.2_C5.2_[C-2G]_H5.2_A5.1_F5.1_T5.2_[T11G]_[A12T] (ssRNA)
RNA: B1 RNA with C28G, G29U, G31A, U40G, C41U
B35: Id_ii_S2_P5E.3_K5.2_C5.2_[C-2G]_H5.2_A5.1_F5.1_T5.2_[T11C]_[A12G] (ssRNA)
RNA: B1 RNA with C28G, G29U, G31A, U40C, C41G
B36: Id_ii_S2_P5E.3_K5.2_C5.2_[C-2G]_H5.2_A5.1_F5.1_T5.2_[T11C]_[A12C] (ssRNA)
RNA: B1 RNA with C28G, G29U, G31A, U40C
B37: Ic_S1_P5E.1_K5.1_C5.1_H5.1_A5.1_[A7G]_F5.1_[T8G]_T5.1 (ssRNA)
RNA: UCUCUUUGUAUUGGUAUCUCUU
B38: Id_ii_S2_P5E.3_K5.2_C5.2_[C-2G]_H5.2_A5.1_F5.1_T5.2_[T11C]_[A12T] (ssRNA)
RNA: B1 RNA with C28G, G29U, G31A, U40C, C41U
B39: Id_ii_S2_P5E.3_K5.2_C5.2_[C-2G]_H5.2_A5.1_F5.1_T5.2_[T11A] (ssRNA)
RNA: B1 RNA with C28G, G29U, G31A, U40A, C41A
B40: Id_ii_S2_P5E.3_K5.2_C5.2_[C-2G]_H5.2_A5.1_F5.1_T5.2_[A12C] (ssRNA)
RNA: B1 RNA with C28G, G29U, G31A
B41: Id_ii_S2_P5E.3_K5.2_C5.2_[C-2G]_H5.2_A5.1_F5.1_T5.2_[A12T] (ssRNA)
RNA: B1 RNA with C28G, G29U, G31A, C41U
B42: Id_ii_S2_P5E.3_K5.2_C5.2_[C-2T]_[T-1G]_H5.2_A5.1_F5.1_T5.2_[T11G]_[A12C] (ssRNA)
RNA: B1 RNA with C28U, G31A, U40G
B43: Id_ii_S2_P5E.3_K5.2_C5.2_[C-2T]_[T-1G]_H5.2_A5.1_F5.1_T5.2_[T11G]_[A12T] (ssRNA)
RNA: B1 RNA with C28U, G31A, U40G, C41U
B44: Id_ii_S2_P5E.3_K5.2_C5.2_[C-2T]_[T-1G]_H5.2_A5.1_F5.1_T5.2_[T11A]_[A12C] (ssRNA)
RNA: B1 RNA with C28U, G31A, U40A
B45: Id_ii_S2_P5E.3_K5.2_C5.2_[C-2T]_[T-1G]_H5.2_A5.1_F5.1_T5.2_[T11A]_[A12T] (ssRNA)
RNA: B1 RNA with C28U, G31A, U40A, C41U

Target: T1, PUF4 RNA-binding domain
Assay: Mg; RNA-MaP; 20 mM Na-HEPES pH 7.4, 30 mM KOAc, 0.75 mM MgCl2, 0.1% Tween-20, 5% glycerol, 0.1 mg/mL BSA, 2 mM DTT; 25 C; 0.0125-409.6 nM protein
Settings: tags: N-His6-TEV cleaved; C-SNAP kept, Cy3B-labelled; label: tethered on chip by stalled RNA polymerase

| Binder | Kd |
| --- | --- |
| B1 | 2.68 nM |
| B2 | 1.54 nM |
| B3 | 9.77 nM |
| B4 | 8.58 nM |
| B5 | 3.51 nM |
| B6 | 1.44 nM |
| B7 | 3.1 nM |
| B8 | 2.27 nM |
| B9 | 1.5 nM |
| B10 | 0.992 nM |
| B11 | 2.55 nM |
| B12 | 2.92 nM |
| B13 | 26.7 nM |
| B14 | 4.53 nM |
| B15 | 13.4 nM |
| B16 | 4.3 nM |
| B17 | 2.97 nM |
| B18 | 3.27 nM |
| B19 | 1.71 nM |
| B20 | 4.41 nM |
| B21 | 1.79 nM |
| B22 | 3.44 nM |
| B23 | 1.19 nM |

| Binder | Kd |
| --- | --- |
| B24 | 635 nM |
| B25 | 133 nM |
| B26 | 11.7 nM |
| B27 | 161 nM |
| B28 | 546 nM |
| B29 | 381 nM |
| B30 | 95.1 nM |
| B31 | 394 nM |
| B32 | 455 nM |
| B33 | 92.5 nM |
| B34 | 16.7 nM |
| B35 | 68.5 nM |
| B36 | 14.9 nM |
| B37 | 37.5 nM |
| B38 | 27.5 nM |
| B39 | 21.3 nM |
| B40 | 16 nM |
| B41 | 11.7 nM |
| B42 | 0.514 nM |
| B43 | 0.685 nM |
| B44 | 0.571 nM |
| B45 | 0.37 nM |
